{
  "source": "paper PMC10600506",
  "about": "“A potent and broad‐spectrum neutralizing nanobody for SARS‐CoV‐2 viruses, including all major Omicron strains” (MedComm, 2023)",
  "binders": {"B1": {"name": "Nb8 (VHH)", "VHH": "AVQLQASGGGFVQPGGSLRLSCAASGILGTNTWMGWFRQAPGKEREFVSAINYWTEPEYYADSVKGRFTISRDNSKNTVYLQMNSLRAEDTATYYCAQQNMDLNFDVFAWEYWGQGTQVTVSS"}, "B2": {"name": "Nb26 (VHH)", "VHH": "AVQLQASGGGFVQPGGSLRLSCAASGNYYPFTFMGWFRQAPGKEREFVSAIVTDYNKNYYADSVKGRFTISRDNSKNTVYLQMNSLRAEDTATYYCAYQDHSLIVESSGHMYWGQGTQVTVSS"}, "B3": {"name": "Nb24 (VHH)", "VHH": "AVQLQASGGGFVQPGGSLRLSCAASGHWPWTGFMGWFRQAPGKEREFVSAIVEYGWPTYYADSVKGRFTISRDNSKNTVYLQMNSLRAEDTATYYCAIAGLIAPEFEQMPVYWGQGTQVTVSS"}},
  "data": [
    {"biological_target": "SARS-CoV-2 Omicron BA.1 Spike receptor-binding domain (SARS-CoV-2 Omicron BA.1, strain, biotin on the Avi tag (for phage screening and BLI); not biotinylated for crystallisation)", "values": [
      {"binder": "B1", "binding result": "binds"},
      {"binder": "B2", "binding result": "binds"},
      {"binder": "B3", "binding result": "binds"}
    ]}
  ]
}
